The RNAGym collection of RNA variant scans (doi:10.1021/acssynbio.7b00057)

B1: Pistol ribozyme (parent)
chain: GGGUCGUUGUUCCAUAAUCGCGUGGAUAUGGCACGCAAGUUUCUACCGGGCACCGUAAAUGUCCGACUGGAGCCGUUCGGGCGGCUAUAAACAGACCUCAGGCCCGAAGCGUGGCGGCACCUGCCGCCGGUGGUAAAAAAGAUCGGAAGAGCACACGUCU

Variants of: B1
Test: aptazyme ON/OFF ratio, guanine; higher = stronger switching; co-transcriptional cleavage with and without guanine

Variant | aptazyme ON/OFF ratio
U7C U8G U10A U11G C12G C13G | 1.23
U7C U8G U10A U11C C12U C13A | 1.1
U7C U8G U10A U11C C12U C13U | 1.06
U7C U8G U10A U11C C12U C13G | 1.18
U7C U8G G9U U10G U11A C13G | 1.08
U7C U8G G9U U10G U11A C13A | 1.1
U7C U8G G9U U10G U11A C13U | 1.12
U7C U8G G9U U10C U11A C13U | 1.35
U7C U8G G9U U10C U11A C13G | 1.24
U7C U8G G9U U10C U11A C13A | 1.24
U7C U8G G9U U10G U11G C12G C13A | 1.15
U7C U8G G9U U10G U11G C12G C13U | 1.25
U7C U8G G9U U10G U11G C12G C13G | 1.24
U7C U8G U10C U11A C12A | 2.52
U7C U8G U10C U11A C12G | 1.2
U7C U8G G9U U10C U11C C12U C13A | 1.05
U7C U8G G9U U10C U11C C12U C13U | 1.09
U7C U8G G9U U10C U11C C12U C13G | 1.05
U7C U8G U10A U11C C12A | 1.13
U7C U8G U10A U11C C12G | 1.18
U7C U8G U10A U11C C12U | 1.04

Variant | aptazyme ON/OFF ratio
U7C U8G G9U U10A U11G C13A | 1.13
U7C U8G G9U U10A U11G C13G | 1.04
U7C U8G G9U U10A U11G C13U | 1.28
U7C U8G G9U U10G U11C C12A C13G | 1.06
U7C U8G G9U U10G U11C C12A C13U | 1.15
U7C U8G G9U U10G U11C C12A C13A | 1.11
U7C U8G G9U U11C C12U C13U | 1.32
U7C U8G G9U U11C C12U C13G | 1.07
U7C U8G G9U U11C C12U C13A | 1.38
U7C U8G U10A U11C C12G C13U | 1.24
U7C U8G U10A U11C C12G C13G | 1.22
U7C U8G U10A U11C C12G C13A | 1.14
U7C U8G G9U U10G U11G C12U | 1.28
U7C U8G G9U U10G U11G C12A | 1.22
U7C U8G G9U U10G U11G C12G | 1.22
U7C U8G G9U U11G C12A C13A | 1.17
U7C U8G G9U U11G C12A C13U | 1.21
U7C U8G G9U U11G C12A C13G | 1.24
U7C U8G U10A U11G C13U | 1.28
U7C U8G U10A U11G C13A | 1.11
U7C U8G U10A U11G C13G | 1.06

Variant | aptazyme ON/OFF ratio
U7C U8G G9U U10A U11A C12G C13G | 1.28
U7C U8G G9U U10A U11A C12G C13A | 1.18
U7C U8G G9U U10A U11A C12G C13U | 1.2
U7C U8G G9U U10G U11A C12A C13A | 1.18
U7C U8G G9U U10G U11A C12A C13G | 1.17
U7C U8G G9U U10G U11A C12A C13U | 1.26
U7C U8G G9U U10A U11G C12G C13A | 1.05
U7C U8G G9U U10A U11G C12G C13U | 1.19
U7C U8G G9U U10A U11G C12G C13G | 1.18
U7C U8G U10A U11A C13G | 1.13
U7C U8G U10A U11A C13A | 1.12
U7C U8G U10A U11A C13U | 1.29
U7C U8G G9U U10G U11A C12G C13G | 1.3
U7C U8G G9U U10G U11A C12G C13U | 1.32
U7C U8G G9U U10G U11A C12G C13A | 1.15
U7C U8G G9U U10A U11G C12U | 1.19
U7C U8G G9U U10A U11G C12G | 1.23
U7C U8G G9U U10A U11G C12A | 1.11
U7C U8G G9U U10G U11C C12U C13G | 1.08
U7C U8G G9U U10G U11C C12U C13A | 1.13
U7C U8G G9U U10G U11C C12U C13U | 1.04

Variant | aptazyme ON/OFF ratio
U7C U8G U10A C12U C13U | 1.33
U7C U8G U10A C12U C13G | 1.13
U7C U8G U10A C12U C13A | 1.13
U7C U8G G9U U10C U11C C12A C13U | 1.18
U7C U8G G9U U10C U11C C12A C13G | 1.19
U7C U8G G9U U10C U11C C12A C13A | 1.06
U7C U8G U10C C12A C13G | 1.1
U7C U8G U10C C12A C13A | 1.28
U7C U8G U10C C12A C13U | 1.67
U7C U8G G9U U10C U11C C12A | 1.07
U7C U8G G9U U10C U11C C12U | 1.1
U7C U8G G9U U10C U11C C12G | 1.07
U7C U8G G9U U10A C13U | 1.1
U7C U8G G9U U10A C13A | 1.14
U7C U8G G9U U10A C13G | 1.08
U7C U8G U10A U11A C12A C13G | 1.12
U7C U8G U10A U11A C12A C13U | 1.18
U7C U8G U10A U11A C12A C13A | 1.1
U7C U8G G9U U10G C12G C13G | 1.08
U7C U8G G9U U10G C12G C13U | 1.07
U7C U8G G9U U10G C12G C13A | 1.07
